The target of experiment [1] is T1, human PSMA (human, UniProt Q04609 44-750, limits assumed).
T1 construct: also called huPSMA; hPSMA
As to the kind of experiment: binding kinetics, uTCE.

Experiment [2] addresses T2, human PSMA-Fc (human, UniProt Q04609 44-750).
T2 construct: also called Human PSMA-Fc fusion
As to the kind of experiment: Octet. In general terms: Biolayer interferometry detects binding as a change in optical thickness at a sensor tip.

Experiment [3] deals with T2, human PSMA-Fc. As to the kind of experiment: Octet, PSMA-Fc. As for the experimental part: Binding affinity of select PSMA PTE variants was tested by Octet.
The target of experiment [4] is T3, human CD3 epsilon (human, UniProt P07766 23-126, limits assumed).
T3 construct: also called huCD3e
T3 sequence (P07766 23-126 limits assumed): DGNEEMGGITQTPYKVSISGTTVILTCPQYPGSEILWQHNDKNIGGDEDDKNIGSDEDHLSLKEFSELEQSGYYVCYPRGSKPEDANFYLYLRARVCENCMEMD
Nature of the experiment: BLI or SPR.

The target in experiment [5] is T4, cynomolgus monkey CD3 epsilon (cynomolgus monkey, UniProt Q95LI5 22-117, limits assumed).
T4 construct: also called cyCD3e; cyno CD3
T4 sequence (looked up): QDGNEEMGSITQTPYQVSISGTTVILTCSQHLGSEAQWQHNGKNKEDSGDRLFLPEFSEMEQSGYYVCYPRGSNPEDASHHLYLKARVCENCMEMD
Nature of the experiment: BLI or SPR.

For experiment [6], the target named is T5, cynomolgus monkey PSMA (cynomolgus monkey, UniProt A0A2K5VNZ0 44-750).
T5 construct: also called cyPSMA; cyno PSMA
As to the kind of experiment: BLI or SPR.

The target in experiment [7] is T1, human PSMA. As to the kind of experiment: BLI or SPR.

T2 sequence (Q04609 44-750 limits assumed): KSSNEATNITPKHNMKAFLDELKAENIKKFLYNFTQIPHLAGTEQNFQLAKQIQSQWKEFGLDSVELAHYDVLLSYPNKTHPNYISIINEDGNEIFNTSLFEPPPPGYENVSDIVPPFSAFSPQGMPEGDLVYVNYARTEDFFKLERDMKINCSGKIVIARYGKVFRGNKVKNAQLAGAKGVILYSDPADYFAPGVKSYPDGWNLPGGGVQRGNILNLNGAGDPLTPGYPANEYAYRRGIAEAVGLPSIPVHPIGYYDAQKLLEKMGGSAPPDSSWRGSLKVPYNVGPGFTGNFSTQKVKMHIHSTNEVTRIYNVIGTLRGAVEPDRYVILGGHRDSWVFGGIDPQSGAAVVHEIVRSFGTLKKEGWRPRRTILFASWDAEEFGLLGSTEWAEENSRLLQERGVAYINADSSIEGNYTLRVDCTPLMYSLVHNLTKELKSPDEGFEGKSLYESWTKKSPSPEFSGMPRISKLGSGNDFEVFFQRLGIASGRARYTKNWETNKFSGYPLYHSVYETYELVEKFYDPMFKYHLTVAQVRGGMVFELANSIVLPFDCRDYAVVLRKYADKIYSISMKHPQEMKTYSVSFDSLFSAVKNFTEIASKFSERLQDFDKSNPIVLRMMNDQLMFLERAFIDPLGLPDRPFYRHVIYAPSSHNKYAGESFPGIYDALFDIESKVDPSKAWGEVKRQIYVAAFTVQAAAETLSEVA
T1 sequence (Q04609 44-750 limits assumed): as above

B1: uTCE PSMA-VHH; P01G03R3, CD3.23 (bispecific antibody)
chain: LTGPATSGSETPGTEVQLVESGGGLVQAGGSLRLSCVVSGIAFSPYHMAWYRQAPGKQHEWVAVITTGGTTAYNETVEGRFSISRDNARSTVYLQMNSLKPEDTAVYYCNIYGLSLKWGQGTQVTVSSGGGGSGGGSELVVTQEPSLTVSPGGTVTLTCRSSNGAVTSSNYANWVQQKPGQAPRGLIGGTNKRAPGTPARFSGSLLGGKAALTLSGVQPEDEAVYYCALWYPNLWVFGGGTKLTVLGATPPETGAETESPGETTGGSAESEPPGEGEVQLLESGGGIVQPGGSLKLSCAASGFTFNTYAMNWVRQAPGKGLEWVARIRSKYNNYATYYADSVKDRFTISRDDSKNTVYLQMNNLKTEDTAVYYCVRHENFGNSYVSWFAHWGQGTLVTVSSGTAEAASASGEAGRSANHTPAG
By Kd is commonly meant the concentration at which binding is half-saturated. Usually koff stands for the rate constant with which the complex falls apart. For orientation: kon means the rate constant with which the complex forms. Take B1: in experiment [1], the Kd is 55.7 nM, the dissociation rate constant (koff) was 0.000539 s⁻¹ and the on-rate (kon) was determined as 9670 M⁻¹ s⁻¹.

B2: uTCE of AC3265 (bispecific antibody)
chain: QVQLVESGGGVVQPGRSLRLSCAASGRTFGIYVMGWYRQAPGKEREFVAAISWSGSNRLVSDSVKGRFTISRDNSKNTLYLQMNSLRAEDTAVYYCAASNRLYGRTWYDFNESDYWGQGTQVTVSSGGGGSGGGSELVVTQEPSLTVSPGGTVTLTCRSSNGAVTSSNYANWVQQKPGQAPRGLIGGTNKRAPGTPARFSGSLLGGKAALTLSGVQPEDEAVYYCALWYPNLWVFGGGTKLTVLGATPPETGAETESPGETTGGSAESEPPGEGEVQLLESGGGIVQPGGSLKLSCAASGFTFNTYAMNWVRQAPGKGLEWVARIRSKYNNYATYYADSVKDRFTISRDDSKNTVYLQMNNLKTEDTAVYYCVRHENFGNSYVSWFAHWGQGTLVTVSS
notes: Linker given only as 9 residues; also called PSMA.55
The molecule B2 returned a Kd in experiment [2] of 2.7 nM. In experiment [3], this molecule gave a Kd of 2.7 nM, a koff of 0.00028 s⁻¹ and a kon of 104000 M⁻¹ s⁻¹.

B3: uTCE of AC3342 (bispecific antibody)
chain: QVQLVESGGGVVQPGRSLRLSCAASGRTFGIYVMGWVRQAPGKEREFVAAISWSGSNRLVSDSVKGRFTISRDNSKNTLYLQMNSLRAEDTAVYYCAASNKLYGRTWYDFNESDYWGQGTQVTVSSGGGGSGGGSELVVTQEPSLTVSPGGTVTLTCRSSNGAVTSSNYANWVQQKPGQAPRGLIGGTNKRAPGTPARFSGSLLGGKAALTLSGVQPEDEAVYYCALWYPNLWVFGGGTKLTVLGATPPETGAETESPGETTGGSAESEPPGEGEVQLLESGGGIVQPGGSLKLSCAASGFTFNTYAMNWVRQAPGKGLEWVARIRSKYNNYATYYADSVKDRFTISRDDSKNTVYLQMNNLKTEDTAVYYCVRHENFGNSYVSWFAHWGQGTLVTVSS
notes: Linker given only as 9 residues; also called PSMA.132
Regarding B3, in experiment [2], the equilibrium dissociation constant (Kd) was 5.6 nM. In experiment [3], this molecule registered a dissociation constant Kd of 5.6 nM, an off-rate constant (koff) of 0.000479 s⁻¹ and a kon of 86600 M⁻¹ s⁻¹.

B4: AMX-500(1x-N) (bispecific antibody)
chain: ASSATPESGPGTSTEPSEGSAPGTSESATPESGPGSGPGTSESATPGTSESATPESGPGSEPATSGSETPGTSESATPESGPGTSTEPSEGSAPGSPAGSPTSTEEGTSESATPESGPGSEPATSGSETPGTSESATPESGPGSPAGSPTSTEEGSPAGSPTSTEEGTSTEPSEGSAPGTSESATPESGPGTSESATPESGPGTSESATPESGPGSEPATSGSETPGSEPATSGSETPGSPAGSPTSTEEGTSTEPSEGSAPGTSTEPSEGSAPGSEPATSGSETPGTSESATPEAGRSASHTPAGLTGPGTSESATPESQVQLVESGGGVVQPGRSLRLSCAASGRTFGIYVWGWFRQAPGKEREFVGAMSWSGSNRKVSDSVKGRFTISRDNSKNTLYLQMNSLRAEDTAVYYCAASNKEYGRTWYDFNESDYWGQGTQVTVSSGGGGSGGGSELVVTQEPSLTVSPGGTVTLTCRSSNGAVTSSNYANWVQQKPGQAPRGLIGGTNKRAPGTPARFSGSLLGGKAALTLSGVQPEDEAVYYCALWYPNLWVFGGGTKLTVLSESATPESGPGTSPGATPESGPGTSESATPEVQLVESGGGIVQPGGSLRLSCAASGFTFSTYAMNWVRQAPGKGLEWVGRIRTKRNNYATYYADSVKGRFTISRDDSKNTVYLQMNSLKTEDTAVYYCVRHENFGNSYVSWFAHWGQGTLVTVSSGTATPESGPG
notes: Lacks the mask linked to the CD3 domain
As for B4, the Kd in experiment [4] came to 46.3 nM; in experiment [5] it was 38 nM; in experiment [6] it was 2400 nM; in experiment [7], 230 nM. Moreover, the off-rate (koff) was 0.1 s⁻¹ in experiment [4], 0.1 s⁻¹ in experiment [5], 0.039 s⁻¹ in experiment [6] and 0.012 s⁻¹ in experiment [7]. Moreover, the kon in experiment [4] worked out at 2.8e+06 M⁻¹ s⁻¹; in experiment [5], 2.9e+06 M⁻¹ s⁻¹; in experiment [6], 16000 M⁻¹ s⁻¹; in experiment [7], 50000 M⁻¹ s⁻¹.

B5: uTCE PSMA-VHH; P01E02R3, CD3.23 (bispecific antibody)
chain: LTGPATSGSETPGTEVQLVESGGGLVQAGGSLKLSCVANGPTFSTYAMAWFRQAPGKEHEFVAAITGDGDTTNNADSVKGRFTISRDNAKNRVYLQLNSLKPEDTAAYYCAAGVHHTYTIPRLWLYWGQGTQVTVSSGGGGSGGGSELVVTQEPSLTVSPGGTVTLTCRSSNGAVTSSNYANWVQQKPGQAPRGLIGGTNKRAPGTPARFSGSLLGGKAALTLSGVQPEDEAVYYCALWYPNLWVFGGGTKLTVLGATPPETGAETESPGETTGGSAESEPPGEGEVQLLESGGGIVQPGGSLKLSCAASGFTFNTYAMNWVRQAPGKGLEWVARIRSKYNNYATYYADSVKDRFTISRDDSKNTVYLQMNNLKTEDTAVYYCVRHENFGNSYVSWFAHWGQGTLVTVSSGTAEAASASGEAGRSANHTPAG
In experiment [1], B5 came in with a Kd of 0.6 nM, a koff of 0.000156 s⁻¹ and a kon of 261000 M⁻¹ s⁻¹.

B6: AMX-500(1x-C) (bispecific antibody)
chain: GTSESATPESQVQLVESGGGVVQPGRSLRLSCAASGRTFGIYVWGWFRQAPGKEREFVGAMSWSGSNRKVSDSVKGRFTISRDNSKNTLYLQMNSLRAEDTAVYYCAASNKEYGRTWYDFNESDYWGQGTQVTVSSGGGGSGGGSELVVTQEPSLTVSPGGTVTLTCRSSNGAVTSSNYANWVQQKPGQAPRGLIGGTNKRAPGTPARFSGSLLGGKAALTLSGVQPEDEAVYYCALWYPNLWVFGGGTKLTVLSESATPESGPGTSPGATPESGPGTSESATPEVQLVESGGGIVQPGGSLRLSCAASGFTFSTYAMNWVRQAPGKGLEWVGRIRTKRNNYATYYADSVKGRFTISRDDSKNTVYLQMNSLKTEDTAVYYCVRHENFGNSYVSWFAHWGQGTLVTVSSGTATPESGPGEAGRSASHTPAGLTGPATPESGPGTSESATPESGPGSPAGSPTSTEEGTSESATPESGPGSEPATSGSETPGTSESATPESGPGTSTEPSEGSAPGTSTEPSEGSAPGTSTEPSEGSAPGTSTEPSEGSAPGTSTEPSEGSAPGTSTEPSEGSAPGSPAGSPTSTEEGTSTEPSEGSAPGTSESATPESGPGSEPATSGSETPGTSESATPESGPGSEPATSGSETPGTSESATPESGPGTSTEPSEGSAPGTSESATPESGPGSPAGSPTSTEEGSPAGSPTSTEEGSPAGSPTSTEEGTSESATPESGPGTSTEPSEGSAPGTSESATPESGPGSEPATSGSETPGTSESATPESGPGSEPATSGSETPGTSESATPESGPGTSTEPSEGSAPGSPAGSPTSTEEGTSESATPESGPGSEPATSGSETPGTSESATPESGPGSPAGSPTSTEEGSPAGSPTSTEEGTSTEPSEGSAPGTSESATPESGPGTSESATPESGPGTSPSATPESGPGSEPATSGSETPGSEPATSGSETPGSPAGSPTSTEEGTSTEPSEGSAPGTSTEPSEGSAPGSEPATSGSETPGTSESAGEPEA
notes: Lacks the mask linked to the PSMA domain
On to B6, for which the dissociation constant (Kd) in experiment [4] was 34.4 nM; in experiment [5], 26.7 nM; in experiment [6] it was 2900 nM; in experiment [7], 353 nM. In addition, the koff in experiment [4] amounted to 0.1 s⁻¹; in experiment [5] it was 0.1 s⁻¹; in experiment [6], 0.039 s⁻¹; in experiment [7], 0.012 s⁻¹. Besides, the kon was determined as 3.2e+06 M⁻¹ s⁻¹ in experiment [4], 3.4e+06 M⁻¹ s⁻¹ in experiment [5], 14000 M⁻¹ s⁻¹ in experiment [6] and 35000 M⁻¹ s⁻¹ in experiment [7].

B7: AMX-500 (bispecific antibody)
chain: ASSATPESGPGTSTEPSEGSAPGTSESATPESGPGSGPGTSESATPGTSESATPESGPGSEPATSGSETPGTSESATPESGPGTSTEPSEGSAPGSPAGSPTSTEEGTSESATPESGPGSEPATSGSETPGTSESATPESGPGSPAGSPTSTEEGSPAGSPTSTEEGTSTEPSEGSAPGTSESATPESGPGTSESATPESGPGTSESATPESGPGSEPATSGSETPGSEPATSGSETPGSPAGSPTSTEEGTSTEPSEGSAPGTSTEPSEGSAPGSEPATSGSETPGTSESATPEAGRSASHTPAGLTGPGTSESATPESQVQLVESGGGVVQPGRSLRLSCAASGRTFGIYVWGWFRQAPGKEREFVGAMSWSGSNRKVSDSVKGRFTISRDNSKNTLYLQMNSLRAEDTAVYYCAASNKEYGRTWYDFNESDYWGQGTQVTVSSGGGGSGGGSELVVTQEPSLTVSPGGTVTLTCRSSNGAVTSSNYANWVQQKPGQAPRGLIGGTNKRAPGTPARFSGSLLGGKAALTLSGVQPEDEAVYYCALWYPNLWVFGGGTKLTVLSESATPESGPGTSPGATPESGPGTSESATPEVQLVESGGGIVQPGGSLRLSCAASGFTFSTYAMNWVRQAPGKGLEWVGRIRTKRNNYATYYADSVKGRFTISRDDSKNTVYLQMNSLKTEDTAVYYCVRHENFGNSYVSWFAHWGQGTLVTVSSGTATPESGPGEAGRSASHTPAGLTGPATPESGPGTSESATPESGPGSPAGSPTSTEEGTSESATPESGPGSEPATSGSETPGTSESATPESGPGTSTEPSEGSAPGTSTEPSEGSAPGTSTEPSEGSAPGTSTEPSEGSAPGTSTEPSEGSAPGTSTEPSEGSAPGSPAGSPTSTEEGTSTEPSEGSAPGTSESATPESGPGSEPATSGSETPGTSESATPESGPGSEPATSGSETPGTSESATPESGPGTSTEPSEGSAPGTSESATPESGPGSPAGSPTSTEEGSPAGSPTSTEEGSPAGSPTSTEEGTSESATPESGPGTSTEPSEGSAPGTSESATPESGPGSEPATSGSETPGTSESATPESGPGSEPATSGSETPGTSESATPESGPGTSTEPSEGSAPGSPAGSPTSTEEGTSESATPESGPGSEPATSGSETPGTSESATPESGPGSPAGSPTSTEEGSPAGSPTSTEEGTSTEPSEGSAPGTSESATPESGPGTSESATPESGPGTSPSATPESGPGSEPATSGSETPGSEPATSGSETPGSPAGSPTSTEEGTSTEPSEGSAPGTSTEPSEGSAPGSEPATSGSETPGTSESAGEPEA
notes: also called AC3896; AMX-500-P4
Take B7: the Kd in experiment [4] came to 90 nM; in experiment [5] it was 70 nM.

The record behind these values is patent publication US20260055205A1 (published 2026).
